For this experiment, the target named is pseudo wild-type full-length CREB (unlabelled) (UniProt P16220). Description: SEC-MALS. (SEC sorts molecules by how far they enter the pores of the column.)

With “pseudo wild-type full-length CREB (unlabelled) (from UniProt P16220-2 1-327) (natural protein)”, the stoichiometry N (commonly a count of units in the complex or per binding partner) was determined as 2.
